Marks after values point to notes of the source that are not given here.
Legend:
[1] = system: Fischer 344 rats, lung isograft; test: Orthotopic left lung transplantation in rats after 18 hours of cold preservation, ischemia-reperfusion injury (Example 9); assay type: in vivo, rat; settings: for TUNEL positive EC per 400× field: 4 hours after reperfusion, 0.66 mg/kg, N=7/group
Description: Fischer 344 rats (Harlan Sprague Dawley, Inc, Indianapolis, Ind.), weighing 250 to 300 grams, were subjected to orthotopic left lung transplantation.
The cuff technique (Robson, S. C., et al., Semin. Thromb. Hemost. (2005) 31:217 was used. In brief, after general anesthesia with intraperitoneal pentobarbital (65 mg/kg), mechanical ventilation, systemic heparinization (300 units), and median laparosternotomy, donor rat lungs were flushed through the main pulmonary artery with 20 mL of cold (4° C.) low-potassium dextran glucose solution at 20 cm H2O pressure. In apyrase agent-treated groups, 0.1 mg/L apyrase agent was added to the cold preservation medium. The heart-lung block was then removed with the lungs inflated at end-tidal volume. The left lung graft was isolated, prepared, and stored in low-potassium dextran glucose at 4° C. until transplantation. After 18 hours of cold preservation, recipient animals were anesthetized, intubated with a 14-gauge catheter, and underwent a left thoracotomy. The pulmonary vessels and bronchus were anastomosed with a standard cuff technique. In the sham group, the rats underwent anesthesia and thoracotomy alone. In apyrase agent-treated groups recipients received treatment intravenously through the internal jugular vein 7 minutes after graft reperfusion. In dose response studies apyrase agent was administered at a dose of either 0.07, 0.22 or 0.66 mg/kg of recipient weight. In all other studies apyrase agent was administered at a dose of 0.66 mg/kg of recipient weight. In the vehicle-treated groups, rats received a saline bolus 7 minutes after reperfusion.
The function of the left lung was assessed 4 hours after transplantation. Rats in each group were reanesthetized with pentobarbital. After tracheostomy, the animals were mechanically ventilated with 100% oxygen and a laparosternotomy was performed. The right hilar structures were clamped to isolate the left lung graft. The animals were ventilated for 5 minutes at a tidal volume of 1.5 mL, a respiratory rate of 100 breaths/min, and 1.0 cm H2O of positive end-expiratory pressure. Arterial blood gas analysis was performed with blood samples obtained from the ascending aorta. The lungs were flushed with 20 mL of cold (4° C.) saline solution, and the lung graft was excised and divided into 3 separate sections. The upper and middle sections were snap frozen. The upper section was used for enzyme-linked immunosorbent assay (ELISA) and the middle section was used for myeloperoxidase (MPO) assay. The lower section was weighed, dried at 70° C. for 48 hours, and then reweighed for calculation of the wet/dry (W/D) ratio.
Quantitative MPO activity was determined also previously described (Krawisz, J. E., et al., Gastroenterology (1984) 87:1344). Optical density was measured at 460 nm with a spectrophotometer (model PMQ II; Carl Zeiss, Oberkochen, Germany). Color development was linear from 5 minutes to 20 minutes. One unit of enzyme activity was defined as 1.0 optical density unit per minute per milligram of tissue protein at room temperature.
Proinflammatory cytokine and chemokine measurement was made on lung samples which were homogenized with T-PER Extraction Reagent (Pierce, Rockford, Ill.). Lung homogenates were centrifuged twice at 10,000 rpm at 4° C. for 5 min, and the supernatants were collected. The content of tumor necrosis factor-α (TNF-α, interleukin-1β (IL-1β) and macrophage inflammatory protein-2 (MIP-2) were determined by using ELISA kits (BioSource International, Inc, Camarillo, Calif.) in accordance with manufacturer's instructions.
For TUNEL assay, lung specimens harvested 4 hours after reperfusion were perfused with 20 mL isotonic sodium chloride solution and inflation fixed with 20 mL HistoChoice (Amresco Inc, Solon, Ohio). Specimens were cut, mounted, de-paraffinized, and then steam-treated with Dako target retrieval solution (Dako, Carpentaria, Calif.) and quenched with 3% hydrogen peroxide. […]

[2] = system: C57BL/6J mice, myocardial ischemia; test: Mouse model of cardiac ischemia/reperfusion injury (Example 8); assay type: in vivo; settings: 24 hr reperfusion
Description: A mouse model of cardiac ischemia/reperfusion injury was used to determine the effect of apyrase agent on infarct size. Myocardial ischemia was produced in C57BL/6J mice via left anterior coronary artery ligation. Mice were treated with apyrase agent (1 mg/kg, IV) or saline 5 min prior to 60 min of experimentally-induced myocardial ischemia or 50 min after ischemia (n=6-8 per group). After 24 hr of reperfusion, hearts were excised and area at risk and infarct size were determined by Evan's blue and triphenyltetrazolium staining.

[3] = system: rats, thromboembolic stroke (MCA occlusion); test: Rat model of thromboembolic stroke (MCA occlusion by preformed clot), apyrase agent plus aspirin (Example 2); assay type: in vivo; settings: for Neurological deficits, median (interquartile range 25th to 75th), modified Bederson score: n = 10
Description: In this study, four experimental groups were included (n=10):
(1) control, saline injected gastrically;
(2) aspirin, 1.25 mg/kg (equivalent to 100 mg/day dose in human) injected gastrically once a day, starting 3 days prior to middle cerebral artery (MCA) occlusion and also MCA occlusion until the end of each experiment;
(3) apyrase, dose at 0.75 mg/kg injected IV at 2 h after MCA occlusion;
(4) combination group, aspirin and apyrase agent.
In this clinically relevant embolic model, ischemic brain injury was induced by embolizing preformed clots into the middle cerebral artery (MCA). Ten microliters of blood were withdrawn into a catheter and retained for 15 min to allow formation of a clot. Once the clot was formed, the catheter was advanced 17 mm in the ICA until its tip was 1-2 mm away from the origin of the MCA. The preformed clot in the catheter was then injected, and the catheter was removed. […]
Infarct was measured in the brain section stained with 2,3,5-triphenyltetrazolium chloride (TTC) solution. The infarct volume was expressed as a percentage of the total volume from the ipsilateral hemisphere.
Brain swelling (edema) was determined using a formula: edema=(the volume of the right hemisphere—the volume of the left hemisphere)/the volume of the left hemisphere.
Neurological deficits were determined using a modified Bederson's scoring system as following: 0: no observable deficit; 1: forelimb flexion; 2: forelimb flexion plus decreased resistance to lateral push; 3: unidirectional circling; 4: unidirectional circling plus decreased level of consciousness.
Hemorrhagic transformation was quantified by detection of extracellular hemoglobin content in brain homogenates using Drabkin's reagents.

B1: sol CD39L3 R67G T69R (protein)
chain: EVLPPGLKYGIVLDAGSSGTRVYVYQWPAEKENNTGVVSQTFKCSVKGSGISSYGNNPQDVPRAFEECMQKVKGQVPSHLHGSTPIHLGATAGMRLLRLQNETAANEVLESIQSYFKSQPFDFRGAQIISGQEEGVYGWITANYLMGNFLEKNLWHMWVHPHGVETTGALDLGGASTQISFVAGEKMDLNTSDIMQVSLYGYVYTLYTHSFQCYGRNEAEKKFLAMLLQNSPTKNHLTNPCYPRDYSISFTMGHVFDSLCTVDQRPESYNPNDVITFEGTGDPSLCKEKVASIFDFKACHDQETCSFDGVYQPKIKGPFVAFAGFYYTASALNLSGSFSLDTFNSSTWNFCSQNWSQLPLLLPKFDEVYARSYCFSANYIYHLFVNGYKFTEETWPQIHFEKEVGNSSIAWSLGYMLSLTNQIPAESPLIRLPIEPPV
modifications: glycosylated; synthetically constructed apyrase
pulmonary edema (wet to dry weight ratio) ([1]; 0.22 mg/kg IV, 4 hours): trended to lower mean levels | lung function (arterial PO2) compared to saline-treated recipients ([1]; 0.22 mg/kg IV, 4 hours after transplantation): trend towards better lung function | lung graft histopathology (hematoxylin and eosin) compared to saline-treated recipients ([1]; 0.66 mg/kg IV 7 minutes after reperfusion): less apparent alveolar hemorrhage and microvascular injury | pulmonary edema (wet to dry weight ratio) ([1]; 0.66 mg/kg IV, 4 hours): significantly attenuated | lung function (arterial PO2) compared to saline-treated recipients ([1]; 0.66 mg/kg IV, 4 hours after transplantation): significant improvement | MPO activity in lung grafts ([1]; 4 hours): reduced | expression of E-selectin on endothelial cells ([1]; 4 hours): reduced | ADP concentration in the BAL fluid relative to saline-treated recipients ([1]; 4 hours after engraftment): significantly lower concentrations | ATP concentration in the BAL fluid relative to saline-treated recipients ([1]; 4 hours after engraftment): significantly lower concentrations | TUNEL positive EC per 400× field [1]: significantly fewer apoptotic EC | TUNEL positive EC per 400× field ([1]; listed as apyrase): three | numbers of neutrophils recovered from the airways ([1]; 4 hours after transplantation): significant decrease | total cells in the BAL ([1]; 4 hours after transplantation): significantly fewer cells | intragraft level of TNFa (ELISA) ([1]; 4 hrs of reperfusion, saline about 75): about 35 pg/mg | intragraft level of MIP-2 (ELISA) ([1]; 4 hrs of reperfusion, saline about 1,800): about 1,300 pg/mg | intragraft level of IL-1β (ELISA) ([1]; 4 hrs of reperfusion, saline about 2,200): about 1,100 pg/mg | reduction of infarct size compared to the control group ([2]; 1 mg/kg IV 5 minutes prior to ischemia, 60 min ischemia): approximately 50% | reduction of infarct size ([2]; 1 mg/kg IV 50 min after ischemia): approximately 50% | Neurological deficits, median (interquartile range 25th to 75th), modified Bederson score ([3]; 4 h after MCA occlusion): 3 | Neurological deficits, median (interquartile range 25th to 75th), modified Bederson score ([3]; 4 h after MCA occlusion, listed as Apyrase agent): 3 (2-3) | Neurological deficits, median (interquartile range 25th to 75th), modified Bederson score ([3]; 8 h after MCA occlusion): improved | Neurological deficits, median (interquartile range 25th to 75th), modified Bederson score ([3]; 8 h after MCA occlusion, listed as Apyrase agent): 2 (2-3)*^ | infarct volume, percentage of the total volume of the ipsilateral hemisphere (mean±SD) ([3]; 24 h after MCA occlusion, aspirin 1.25 mg/kg gastrically once a day from 3 days prior, apyrase 0.75 mg/kg IV at 2 h): 17.89±2.35% | Neurological deficits, median (interquartile range 25th to 75th), modified Bederson score ([3]; 24 h after MCA occlusion): significantly less severe than the control group | Neurological deficits, median (interquartile range 25th to 75th), modified Bederson score ([3]; 24 h after MCA occlusion, listed as Apyrase agent): 1.5 (1-2)* | extracellular hemoglobin content in brain homogenates (hemorrhagic transformation, Drabkin's reagents) ([3]; 24 h after ischemic injury): 0.89±0.08 | brain edema (brain swelling) ([3]; 24 h after ischemic injury, aspirin 1.25 mg/kg, apyrase 0.75 mg/kg IV at 2 h): 6.70±0.93%

Source: patent US8535662B2, “Apyrase therapy for bleeding conditions” (Apt Therapeutics, Inc., priority 2010, dated 2013)
